Data taken from US20240092919A1 (Ablynx, published 2024).
Positions count from the first letter of the chain named. Read-outs that look alike come from different tables or passages of the source.

Tests used:
[1] = molecular target: T1, Human T cell receptor on human primary T cells (human, UniProt P01848 1-140; P01850 1-176); experiment: cell-based or functional assay
T1 TCR alpha (looked up): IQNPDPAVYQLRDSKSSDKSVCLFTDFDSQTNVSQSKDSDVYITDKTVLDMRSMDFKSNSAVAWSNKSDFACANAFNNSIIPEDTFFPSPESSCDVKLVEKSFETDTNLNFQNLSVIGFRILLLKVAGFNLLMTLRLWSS
T1 TCR beta (looked up): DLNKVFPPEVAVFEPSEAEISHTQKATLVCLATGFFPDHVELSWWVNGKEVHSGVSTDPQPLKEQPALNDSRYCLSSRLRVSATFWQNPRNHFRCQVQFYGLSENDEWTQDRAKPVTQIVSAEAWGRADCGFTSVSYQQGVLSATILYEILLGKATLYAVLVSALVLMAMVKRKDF

[2] = molecular target: T2, Cynomolgus T cell receptor on cynomolgus primary T cells (cynomolgus monkey); experiment: cell-based or functional assay
[3] = molecular target: T1, Human T cell receptor on human primary …; experiment: cell-based or functional assay
[4] = molecular target: T2, Cynomolgus T cell receptor on …; experiment: cell-based or functional assay; remark: listed apart in the source
[5] = molecular target: T3, Cynomolgus TCR(AEA41865/AEA41866)-zipper protein (cynomolgus monkey); experiment: SPR, ProteOn XPR36, 25 C, immobilised TCR-zipper
T3 construct: also called cyTCR-zipper protein; cynoTCR zipper
Excerpt: (§2) HuTCR-zipper or cyTCR-zipper protein was immobilized on a GLC sensor chip (between 100-200 RU) via amine coupling chemistry, using EDC/NHS for activation of the carboxyl groups on the chip surface (running buffer: HBS-EP+, pH7.4). […] Processed sensorgrams were fitted with the Langmuir model (1:1 interaction) using ProteOn Manager 3.1.0 (Version 3.1.0.6) software.
T3 TCR alpha: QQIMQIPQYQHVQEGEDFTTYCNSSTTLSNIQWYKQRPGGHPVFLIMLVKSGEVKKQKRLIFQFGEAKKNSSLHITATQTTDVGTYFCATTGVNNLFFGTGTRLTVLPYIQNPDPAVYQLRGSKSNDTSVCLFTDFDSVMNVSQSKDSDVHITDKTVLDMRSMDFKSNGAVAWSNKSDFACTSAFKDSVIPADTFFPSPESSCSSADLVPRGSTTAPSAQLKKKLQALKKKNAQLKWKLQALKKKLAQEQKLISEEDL
T3 TCR beta: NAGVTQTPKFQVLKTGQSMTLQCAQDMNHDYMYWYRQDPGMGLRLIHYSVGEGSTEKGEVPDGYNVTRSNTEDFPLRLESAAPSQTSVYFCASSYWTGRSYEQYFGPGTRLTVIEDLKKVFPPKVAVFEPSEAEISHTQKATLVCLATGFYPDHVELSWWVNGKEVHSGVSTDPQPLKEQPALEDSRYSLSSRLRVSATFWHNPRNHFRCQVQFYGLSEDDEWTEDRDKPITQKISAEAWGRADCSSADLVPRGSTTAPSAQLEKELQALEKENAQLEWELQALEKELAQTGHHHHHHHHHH

[6] = molecular target: T2, Cynomolgus T cell receptor on …; experiment: cell-based or functional assay; remark: listed apart in the source
[7] = molecular target: T1, Human T cell receptor on human primary …; experiment: cell-based or functional assay
[8] = molecular target: T1, Human T cell receptor on human primary …; experiment: cell-based or functional assay
[9] = molecular target: T2, Cynomolgus T cell receptor on …; experiment: cell-based or functional assay; remark: listed apart in the source
[10] = molecular target: T4, Cynomolgus TCR(AEA41865/AEA41866)-zipper protein (cynomolgus); experiment: SPR, ProteOn XPR36; TCR-zipper protein immobilised by amine coupling
T4 construct: also called cyTCR-zipper; cyTCR(AEA41865)-zipper
T4 TCR alpha: T3 TCR alpha
T4 TCR beta: T3 TCR beta
Protocol: Purified ISVDs were injected for 2 minutes (flow rate 45 μL/min) at different concentrations (between 0.2 nM and 200 nM) and dissociation was followed for 900 s. Regeneration was performed by injecting 3 M MgCl₂ for 3 minutes (flow rate 90 μL/min). […] Processed sensorgrams were analyzed based on the 1:1 interaction model (Langmuir binding model) using ProteOn Manager 3.1.0 (Version 3.1.0.6) software.

[11] = molecular target: T5, cynomolgus TCR on primary cynomolgus T cells (cynomolgus); experiment: flow cytometry competition on primary cynomolgus T cells; competitor Flag-tagged T017000623 at EC30
T5 construct: whole, on cells; also called cyno TCRαβ
Protocol: (§1) T cells (human T cells obtained as described in Example 3 and cyno T cells purchased from LPT laboratory, Germany) were thawed and counted on the day of the assay and diluted to a concentration of 1E+06 cells/mL, before adding 75 μL to the wells of a V-bottom 96-well plate (Greiner, cat no 651180). Cells were washed once with cold FACS buffer, before adding 25 μL Nb and 25 μL competitor to the wells. […] Cells were resuspended and plates were incubated at 4° C. for 90 minutes, after which plates were washed twice in cold FACS buffer. […] Plates were washed twice in cold FACS buffer. […] Plates were washed twice in cold FACS buffer. Cells were resuspended in 55 μL 1/1000 diluted Propidium Iodide (Sigma-Aldrich, cat no P4170) in FACS buffer before acquiring data on the MACSQuant X (Miltenyi biotec).

[12] = molecular target: T6, human TCR on primary human T cells (human, UniProt P01848 1-140; P01850 1-176); experiment: flow cytometry competition on primary human T cells; competitor Flag-tagged T017000624 at EC30
T6 construct: whole, on cells; also called human TCRαβ
T6 TCR alpha (looked up): T1 TCR alpha (looked up)
T6 TCR beta (looked up): T1 TCR beta (looked up)
Protocol: as §1

[13] = molecular target: T7, human T cell receptor on human primary T cells (human, UniProt P01848 1-140; P01850 1-176); experiment: flow cytometry, human primary T cells
T7 construct: whole, on cells
Protocol: Dose-dependent binding of the purified monovalent ISVD variants to CHO-K1 huTCR(2XN9)/huCD3 overexpressing cells or human primary T cells was evaluated by flow cytometry. […] Next, cells were washed 3 times with FACS buffer and incubated with 1 μg/ml THE™ His Tag Antibody, mAb, Mouse (Genscript, A00186) and washed again. […] Subsequently, cells were resuspended in FACS buffer supplemented with 5 nM TO-PRO®-3 Iodide to distinguish live from dead cells, which are removed during the gating procedure. Cells were analyzed using a FACS Array flow cytometer (BD Biosciences) and Flowing Software. First a P1 population which represented more than 80% of the total cell population was selected based on FSC-SSC distribution. In this gate, 10000 cells were counted during acquisition. From this population the TO-PRO®-3+ cells (dead cells) were excluded and the mean fluorescence intensity (MFI) PE value was calculated.
T7 TCR alpha (looked up): T1 TCR alpha (looked up)
T7 TCR beta (looked up): T1 TCR beta (looked up)

[14] = molecular target: T3, Cynomolgus …; experiment: SPR off-rate, ProteOn XPR36, immobilised TCR-zipper
[15] = molecular target: T8, Cynomolgus T cell receptor on the HSC-F cynomolgus T cell line (cynomolgus monkey); experiment: flow cytometry competition with Flag3-His6-tagged anti-TCR ISVD ligand, HSC-F cells
T8 construct: whole, on cells; also called HSC-F cells; HSC-F cyno T cell line (NIBIO JCRB1164)
Protocol: (§3) Subsequently, cells were resuspended in FACS buffer supplemented with 1 μg/ml Propidium Iodide (PI, Sigma, P4170) to distinguish live from dead cells. Cells were analyzed using a FACS Array flow cytometer (BD Biosciences) using Flowing Software. First a P1 population which represented more than 80% of the total cell population was selected based on FSC-SSC distribution. In this gate, 10000 cells were counted during acquisition. From this population the Propidium iodide or TO-PRO©-3 Iodide positive cells (dead cells) were excluded and the median or Mean PE value was calculated.

[16] = molecular target: T1, Human T cell receptor on human primary …; experiment: flow cytometry competition with Flag3-His6-tagged anti-TCR ISVD ligand, human primary T cells
Protocol: as §3

[17] = molecular target: T1, Human T cell receptor on human primary …; experiment: flow cytometry, human primary T cells
Protocol: The ISVD variants were characterized for binding to CHO-K1 huTCR(2XN9)/huCD3 or to human and cynomolgus primary T cells. […] Next, cells were washed 3 times with FACS buffer and incubated with 1 μg/ml ANTI-FLAG® M2 Ab (Sigma, F1804) and washed again. […] Subsequently, cells were resuspended in FACS buffer supplemented with 5 nM TO-PRO®-3 Iodide to distinguish live from dead cells, which are removed during the gating procedure. Cells were analyzed using a FACS Array flow cytometer (BD Biosciences) and Flowing Software. First a P1 population which represented more than 80% of the total cell population was selected based on FSC-SSC distribution. In this gate, 10000 cells were counted during acquisition. From this population the TO-PRO®-3+cells (dead cells) were excluded and the mean fluorescence intensity (MFI) PE value was calculated.

[18] = molecular target: T3, Cynomolgus …; experiment: SPR, ProteOn XPR36, 25 C, immobilised TCR-zipper
Excerpt: as §2

[19] = molecular target: T1, Human T cell receptor on human primary …; experiment: flow cytometry, human primary T cells
[20] = molecular target: T3, Cynomolgus …; experiment: higher koff divided by lower koff, humanTCR zipper vs cynoTCR zipper (SPR)

B1: T017000633 (bispecific antibody)
chain: DVQLVESGGGVVQPGGSLRLSCVASGYVHKINFYGWYRQAPGKEREKVAHISIGDQTDYADSAKGRFTISRDESKNTVYLQMNSLRPEDTALYYCRALSRIWPYDYWGQGTLVTVSSGGGGSGGGGSGGGGSGGGGSGGGGSGGGGSGGGGSEVQLVESGGGLVQAGGSLRLSCAASGITSKINDMGWYRQTPGNYREWVASITATGTTNYRDSVKGRFTISRDNAKSTVYLQMNSLKPEDTTVYYCNTFPPISNFWGQGTLVTVSSA
- % lysis, MOLM-13, Human T cell mediated killing [1]: 26%
- EC50 (M), MOLM-13, Human T cell mediated killing [1]: 1.8e-10 M
- % lysis, MOLM-13, Cynomolgus T cell mediated killing [2]: 44%
- IC50 (M), xCELLigence CHO Flp-In huCD123 cell killing, Human T cell mediated killing [3]: 9.1e-12 M
- IC50 (M), xCELLigence CHO Flp-In huCD123 cell killing, Cynomolgus T cell mediated killing [4]: 5.1e-12 M
- Kd [5]: 17 nM
- % Lysis, T cell mediated MOLM-13 cell killing, cynomolgus primary T cells, E:T 10:1 [6]: 35%
- EC50 (M), T cell mediated MOLM-13 cell killing, cynomolgus primary T cells, E:T 10:1 [6]: 5.2e-11 M
- % Lysis, T cell mediated MOLM-13 cell killing, human primary T cells, E:T 10:1 [7]: 31%
- EC50 (M), T cell mediated MOLM-13 cell killing, human primary T cells, E:T 10:1 [7]: 1.2e-10 M
- % lysis, KG-1a, Human T cell mediated killing [8]: 56%
- EC50 (M), KG-1a, Human T cell mediated killing [8]: 6.8e-10 M
- % lysis, KG-1a, Cynomolgus T cell mediated killing [9]: 64%
- EC50 (M), KG-1a, Cynomolgus T cell mediated killing [9]: 3.4e-10 M

B2: T017000698 (bispecific antibody)
chain: DVQLVESGGGVVQPGGSLRLSCVASGYVHKINFYGWYRQAPGKEREKVAHISIGDQTDYADSAKGRFTISRDESKNTVYLQMNSLRPEDTAAYYCRALSRIWPYDYWGQGTLVTVSSGGGGSGGGSEVQLVESGGGVVQPGGSLRLSCAASGFTFRSFGMSWVRQAPGKGPEWVSSISGSGSDTLYADSVKGRFTISRDNSKNTLYLQMNSLRPEDTALYYCTIGGSLSRSSQGTLVTVSSA
notes: also called T017000680-9GS-ALB23002-A; TCE01-9GS-ALB23002-A
- Kd [10]: 11 nM
- IC50 [11]: 250 nM
- IC50 [12]: 190 nM

B3: T017000351 (VHH, not shown: small tags and cut ends)
VHH: EVQLVESGGGVVQPGGSLRLSCVASGDVHKINFLGWYRQAPGKEREKVAHISIGDQTDYADSAKGRFTISRDESKNMVYLQMNSLRPEDTALYFCRAFSRIYPYDYWGQGTLVTVSS
notes: also called T0170000351
- EC50 [13]: 110 nM

B4: T017000685 (VHH, not shown: small tags and cut ends)
VHH: B3 VHH with D27E, K30Q, L34Y, M77T, F94Y, F98L, Y102W
- koff [14]: 0.00399 s⁻¹

B5: T017000679 (VHH)
VHH: B3 VHH with E1D, D27Y, L34Y, M77T, F94Y, F98L, Y102W
- IC50 [15]: 620 nM
- IC50 [16]: 100 nM

B6: T017000624 (VHH, not shown: small tags and cut ends)
VHH: B3 VHH with D27Y, L34Y, M77T, F94Y, F98L, Y102W
- EC50 [17]: 45 nM
- Kd [18]: 6.3 nM
- EC50 [19]: 46 nM
- Gap in off-rate human vs cyno [20]: 4.5 fold

B7: T017000141 (VHH, not shown: small tags and cut ends)
VHH: B3 VHH
- Kd [18]: 220 nM
- EC50 [19]: 100 nM
- Gap in off-rate human vs cyno [20]: 12.4 fold

B8: T0170056G05 (VHH)
VHH: B3 VHH with V11L, R86K, L92V
notes: also called T01700056G05; parental ISVD
- EC50 [13]: 110 nM

B9: T017000681 (VHH)
VHH: B3 VHH with E1D, D27Y, L34Y, M77T, L92T, F94Y, F98L, Y102W
- IC50 [15]: 730 nM
- IC50 [16]: 92 nM

B10: T017000687 (VHH, not shown: small tags and cut ends)
VHH: B3 VHH with D27S, K30Q, L34Y, M77T, F94Y, F98L, Y102W
- koff [14]: 0.00427 s⁻¹

B11: T017000345 (VHH, not shown: small tags and cut ends)
VHH: B3 VHH with F94Y
- EC50 [13]: 160 nM
